In patent US20050214802A1 (Genentech, published 2005):
One block for each molecule: values may come before it.

Tests used:
[1] = target: ΔCARD human caspase 9 (lacking the first 138 residues) with Ala substitutions at residues 304 to 306 (human) (UniProt P55211); assay: Ki(app), inhibition of ΔCARD caspase-9 hydrolysis of Ac-LEHD-AFC; too low to measure accurately
[2] = target: ΔCARD human caspase 9 (lacking the first 138 residues) with Ala substitutions at residues 304 to 306 (human) (UniProt P55211); assay: Ki(app), inhibition of ΔCARD caspase-9 hydrolysis of Ac-LEHD-AFC
[3] = target: ΔCARD human caspase 9 (lacking the first 138 residues) with Ala substitutions at residues 304 to 306 (human) (UniProt P55211); assay: caspase-9 inhibition assay, ratio of Ki(app)
[4] = target: T1, caspase-9 zymogen precursor (overexpressed in 293T cells) (UniProt P55211 1-416); assay: co-immunoprecipitation (anti-Flag) from 293T lysates, Western blot with anti-caspase-9
T1 sequence (looked up): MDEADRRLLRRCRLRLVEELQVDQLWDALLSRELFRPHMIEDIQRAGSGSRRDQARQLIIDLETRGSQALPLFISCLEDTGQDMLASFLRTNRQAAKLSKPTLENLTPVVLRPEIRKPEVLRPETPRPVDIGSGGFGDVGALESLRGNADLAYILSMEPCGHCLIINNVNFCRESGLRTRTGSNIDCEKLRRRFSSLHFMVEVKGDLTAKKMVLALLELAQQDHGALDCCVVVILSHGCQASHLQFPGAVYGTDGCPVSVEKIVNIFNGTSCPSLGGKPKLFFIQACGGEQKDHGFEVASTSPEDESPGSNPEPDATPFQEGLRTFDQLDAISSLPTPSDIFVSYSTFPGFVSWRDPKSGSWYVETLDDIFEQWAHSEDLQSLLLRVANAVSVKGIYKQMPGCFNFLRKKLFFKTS
Description: 293T cells were transiently transfected with caspase-9 and Flag-tagged BIR domain proteins or vector. After 40 h, cells were lysed in NP40 lysis buffer (120 mM Tris, 150 mM NaCl, 1% NP-40, 1 mM DTT and protease inhibitor cocktail) and lysates immunoprecipitated (IP) with anti-Flag antibody. Samples were then Western blotted with anti-caspase-9 and anti-Flag antibodies. […] When overexpressed, caspase-9 undergoes autocatalytic processing and it is the processed form that physically interacts with XIAP and ML-IAP BIR domains.

[5] = target: ΔCARD human caspase 9 (lacking the first 138 residues) with Ala substitutions at residues 304 to 306 (human) (UniProt P55211); assay: Ki(app), caspase-9 inhibition; upper end tied by Table 7 to MLBIR-Q (4,600 nM)
[6] = target: ΔCARD human caspase 9 (lacking the first 138 residues) with Ala substitutions at residues 304 to 306 (human) (UniProt P55211); assay: Ki(app), caspase-9 inhibition; lower end tied by Table 7 to full-length ML-IAP (3,200 nM)
[7] = target: ΔCARD human caspase 9 (lacking the first 138 residues) with Ala substitutions at residues 304 to 306 (human) (UniProt P55211); assay: caspase-9 inhibition assay, ratio of Ki(app); remark: listed apart in the source

Molecule: MLXBIR3SG (ML-IAP chimera: ML-IAP-BIR framework with XIAP-BIR3 residues 336-348 in place of 160-179 and S150G)
Ki [1]: < 0.001 µM

Molecule: XIAP-BIR3 (third BIR of XIAP, residues 252-348) (from UniProt P98170 252-348)
Ki [2]: 0.013 µM

B1: Flag-tagged ML-IAP-BIR (expressed in 293T cells) (other, human, UniProt Q96CA5 63-179, looked up)
chain: TEEEEEEGAGATLSRGPAFPGMGSEELRLASFYDWPLTAEVPPELLAAAGFFHTGHQDKVRCFFCYGGLQSWKRGDDPWTEHAKWFPSCQFLLRSKGRDFVHSVQETHSQLLGSWDP
notes: domain: BIR; also called MLBIR; wild-type ML-IAP-BIR; not shown: Flag tag
binding result [4]: no binding

B2: MLBIR-Q (C-terminally truncated variant of ML-IAP-BIR) (protein, human, UniProt Q96CA5 63-172, looked up, not shown: small tags and cut ends)
chain: TEEEEEEGAGATLSRGPAFPGMGSEELRLASFYDWPLTAEVPPELLAAAGFFHTGHQDKVRCFFCYGGLQSWKRGDDPWTEHAKWFPSCQFLLRSKGRDFVHSVQETHSQ
Ki [2]: 4.6 µM
Ki [5]: 3 to 5 µM

Other lines, results leading:

Ki [2]: 0.962 µM
fold better at inhibiting caspase-9 than MLBIR-Q [3]: 5 fold
fold less potent at inhibiting caspase-9 than XIAP-BIR3 [3]: 70 fold
Molecule: MLXBIR3 (ML-IAP-BIR with amino acids 160-179 replaced by amino acids 336-348 of XIAP-BIR3) (from UniProt Q96CA5 63-159; P98170 336-348)

Ki [2]: 3.2 µM
Ki [6]: 3 to 5 µM
fold lower potency for inhibition of caspase-9 relative to XIAP [7]: 300 fold
B3: full-length ML-IAP with N-terminal His6-tag (protein, human, UniProt Q96CA5 1-298, looked up, not shown: small tags and cut ends)
chain: MGPKDSAKCLHRGPQPSHWAAGDGPTQERCGPRSLGSPVLGLDTCRAWDHVDGQILGQLRPLTEEEEEEGAGATLSRGPAFPGMGSEELRLASFYDWPLTAEVPPELLAAAGFFHTGHQDKVRCFFCYGGLQSWKRGDDPWTEHAKWFPSCQFLLRSKGRDFVHSVQETHSQLLGSWDPWEEPEDAAPVAPSVPASGYPELPTPRREVQSESAQEPGGVSPAEAQRAWWVLEPPGARDVEAQLRRLQEERTCKVCLDRAVSIVFVPCGHLVCAECAPGLQLCPICRAPVRSRVRTFLS
